# Measured values reported in the supplement of paper PMC9112550, “Optimization of the antimicrobial peptide Bac7 by deep mutational scanning” (BMC Biology, 2022).
# System: Escherichia coli TOP10
# Test: shrunken log2 fold change of peptide-encoding DNA abundance (4.5 h post-induction vs induction); higher = less antimicrobial activity (less host growth inhibition)
# Conditions: time post-induction: 4.5 h; library: site-saturation at positions 5, 18, 19, 20
# 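Note: peptides expressed intracellularly from a pBAD plasmid library in pooled LB shake-flask culture, induced with 0.3% L-arabinose, DNA abundance read by NGS, three biological replicates, DESeq2 with apeglm shrinkage.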
row,Sequence,shrunken log2 fold change
1,RRIRRRPPRLPRPRPRPLCGPRP,0.0348
2,RRIRRRPPRLPRPRPRPLDVPRP,0.179
3,RRIRRRPPRLPRPRPRPLFEPRP,0.245
4,RRIRRRPPRLPRPRPRPLHGPRP,0.233
5,RRIRRRPPRLPRPRPRPLKKPRP,0.169
6,RRIRRRPPRLPRPRPRPLLEPRP,0.534
7,RRIRRRPPRLPRPRPRPLLHPRP,0.295
8,RRIRRRPPRLPRPRPRPLLPPRP,0.574
9,RRIRRRPPRLPRPRPRPLLWPRP,0.421
10,RRIRRRPPRLPRPRPRPLMCPRP,-0.13
11,RRIRRRPPRLPRPRPRPLMRPRP,1.07
12,RRIRRRPPRLPRPRPRPLNRPRP,-0.169
13,RRIRRRPPRLPRPRPRPLPEPRP,0.731
14,RRIRRRPPRLPRPRPRPLPPPRP,0.937
15,RRIRRRPPRLPRPRPRPLQMPRP,-0.133
16,RRIRRRPPRLPRPRPRPLREPRP,1.14
17,RRIRRRPPRLPRPRPRPLRHPRP,0.558
18,RRIRRRPPRLPRPRPRPLSFPRP,-0.0589
19,RRIRRRPPRLPRPRPRPLSWPRP,0.361
20,RRIRRRPPRLPRPRPRPLTDPRP,0.223
21,RRIRRRPPRLPRPRPRPLTNPRP,-0.16
22,RRIRRRPPRLPRPRPRPLVQPRP,0.355
23,RRIRRRPPRLPRPRPRPLVSPRP,0.153
24,RRIRRRPPRLPRPRPRPLWSPRP,0.136
25,RRIRRRPPRLPRPRPRPLYLPRP,0.926

row,Sequence,shrunken log2 fold change
1,RRIRRRPPRLPRPRPRPMDLPRP,0.0641
2,RRIRRRPPRLPRPRPRPMEAPRP,0.0829
3,RRIRRRPPRLPRPRPRPMETPRP,-0.12
4,RRIRRRPPRLPRPRPRPMGAPRP,0.658
5,RRIRRRPPRLPRPRPRPMGHPRP,0.129
6,RRIRRRPPRLPRPRPRPMGYPRP,0.0381
7,RRIRRRPPRLPRPRPRPMHYPRP,0.117
8,RRIRRRPPRLPRPRPRPMKGPRP,0.144
9,RRIRRRPPRLPRPRPRPMKMPRP,0.18
10,RRIRRRPPRLPRPRPRPMLFPRP,0.263
11,RRIRRRPPRLPRPRPRPMLRPRP,0.854
12,RRIRRRPPRLPRPRPRPMLTPRP,0.211
13,RRIRRRPPRLPRPRPRPMLYPRP,-0.0417
14,RRIRRRPPRLPRPRPRPMNHPRP,-0.281
15,RRIRRRPPRLPRPRPRPMNIPRP,-0.267
16,RRIRRRPPRLPRPRPRPMNWPRP,0.291
17,RRIRRRPPRLPRPRPRPMPMPRP,0.0681
18,RRIRRRPPRLPRPRPRPMPWPRP,0.119
19,RRIRRRPPRLPRPRPRPMQEPRP,-0.206
20,RRIRRRPPRLPRPRPRPMQFPRP,-0.058
21,RRIRRRPPRLPRPRPRPMQNPRP,0.362
22,RRIRRRPPRLPRPRPRPMRAPRP,0.905
23,RRIRRRPPRLPRPRPRPMWMPRP,0.0619
24,RRIRRRPPRLPRPRPRPNADPRP,0.579
25,RRIRRRPPRLPRPRPRPNAGPRP,0.0188

row,Sequence,shrunken log2 fold change
1,RRIRRRPPRLPRPRPRPNATPRP,0.703
2,RRIRRRPPRLPRPRPRPNCSPRP,0.198
3,RRIRRRPPRLPRPRPRPNDNPRP,-0.301
4,RRIRRRPPRLPRPRPRPNFCPRP,0.171
5,RRIRRRPPRLPRPRPRPNFEPRP,0.413
6,RRIRRRPPRLPRPRPRPNGAPRP,-0.151
7,RRIRRRPPRLPRPRPRPNGQPRP,-0.00184
8,RRIRRRPPRLPRPRPRPNGYPRP,0.17
9,RRIRRRPPRLPRPRPRPNHAPRP,0.345
10,RRIRRRPPRLPRPRPRPNHLPRP,-0.394
11,RRIRRRPPRLPRPRPRPNKRPRP,-0.0621
12,RRIRRRPPRLPRPRPRPNNFPRP,-0.00104
13,RRIRRRPPRLPRPRPRPNNGPRP,-0.277
14,RRIRRRPPRLPRPRPRPNPSPRP,0.215
15,RRIRRRPPRLPRPRPRPNPWPRP,0.231
16,RRIRRRPPRLPRPRPRPNPYPRP,-0.0616
17,RRIRRRPPRLPRPRPRPNQEPRP,-0.0479
18,RRIRRRPPRLPRPRPRPNQKPRP,-0.128
19,RRIRRRPPRLPRPRPRPNQPPRP,-0.0317
20,RRIRRRPPRLPRPRPRPNQRPRP,0.269
21,RRIRRRPPRLPRPRPRPNQTPRP,0.0193
22,RRIRRRPPRLPRPRPRPNQVPRP,0.12
23,RRIRRRPPRLPRPRPRPNRDPRP,-0.062
24,RRIRRRPPRLPRPRPRPNREPRP,0.232
25,RRIRRRPPRLPRPRPRPNSHPRP,-0.11
